The nature of this data set: yeast display, Sf9 membrane polyspecificity reagent, FACS + sequencing; frameworks hold sequencing errors. In a few lines:
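A nanobody's polyreactivity label depends on the gate it was sorted from. Yeast display cells were stained with 10% biotinylated, detergent-solubilized Sf9 membrane reagent for 1 hour at 4 °C, enriched on streptavidin microbeads and sorted by FACS. The low and high (top ~1%) gates were set on anti-HA fluorescence for expression and streptavidin fluorescence for reagent binding.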
In the case of “QVQLVESGGGLVQAGGTLRLSCAASGRIFQAYAMGWYRQAPGKERELVASISYRGGITYYADSVKGRFTISRDNAKNTVYLQMNSLKPEDTAVYYCAARSWYFSWEMYYWGQGTQVTVSS”, the “polyreactivity (PSR sort gate)” value is “high polyreactivity”. As for “QVQLVESGGGLVQAGGSLRLSCAASGRIFRTYAMGWYRQAPGKERELVAAISYSGGSTFYADSVKGRFTISRDNAKNSVYLQMNSLKPESTAVYYCAADSRAKRYYWGQGTQVTVSS”, the entry is “high polyreactivity”. On to “QVQLVESGGGLVQAGGSLRLSCAASGLTFYFYAMGWYRQAPGKERELVAAIDWGGGSTYYADSVKGRFTISRDNAKNTVYLQMNSLKPEDTAVYYCAARGYYYNYDVNYWGQGTQVTVSS”, for which the “polyreactivity (PSR sort gate)” value was “low polyreactivity”.

Consider “QVQLVESGGGLVQAGGSLRLSCAASGLTFGFYAMGWYRQAPGKERELVAGISNGGSTNYADSVKARFTISRDNAKNTVYLQMNSLKPEDTAVFYCAAQGEYGFTAYYPGDSWGQGTQVTVSS”, for which the “polyreactivity (PSR sort gate)” value is recorded as “low polyreactivity”. With “QVQLVESGGGLVQAGGSLRLSCAASGFTFASYVMGWYRQAPGKERELVASISWSGGRTYYADSVKGRFTISRDNAKNTVYLQMNSLKPEDTAVYYCNVLVTRYSPWFLYNYWGLGTQVTVSS” the entry was “high polyreactivity”; with “QVQLVESGGGLVQAGGSLRISCAASGSIFPHYAMGWYRQSPAKERELVAAISYSGGRTYYADSVKGRFTISRDNAKNTFYLQMNSLKPEDTAVYYCAKTERVLYHGDYWGQGTQVTVSS”, “low polyreactivity”; with “QVQLEESGGGLVQAGGSLRLSCAASGITLAHNAMGWYRQAAGKERELVASITESGGSTYYADSVKGRFTISRDNAKNTVYLQMNRLKPEDTAVYYCAVRPTVGYWTVYYWGQGTQVTVSS”, “high polyreactivity”. As for “QVQLVESGGGLVQAGGSLRLSCAASGSIFVVYAMGWYRPAHGKERELVAAIDSGGSTYYADSVKGRFTISRDNAKNTVYLQMNSMKTEDTAVYYCAADIYYYLWGLYYWGQGTQVTVSS”, the entry is “low polyreactivity”. As to “QVQLVESGGGLVQAGGSLRLSCAASGFTFWYNTMGWYRQAPGKERELVAAINRGGGRTYYADSVKGRFTISRDNAKNTVYLQMNSLKPEDTAVYYCAKKDYYSKVGGPQSEYDYWGQGTQVTVSS”, the “polyreactivity (PSR sort gate)” value is on record as “low polyreactivity”. As for “QVQLVESGGGLVQAGGSLRLSCAASGGIFDFYAMGWYRQAPGKERELVAAITRSGSSTFYADSVKGRFTISRDNAKNTVYLQMNSLKPEDTAVYYCATRPTSDFVKRRVYEWLDYWGQGTQVTVSS”, the entry is “low polyreactivity”. With “QVQLVESGGALVQAGGSLRLSCGASGSTFHPYAMGWYRQAPGKERELVGAITWRVGSTYYADSVKGRFTISRDNAKNTVYLQMNSLKPEETAVYYCAVSYLSTLVRSRYDYWGQGTQVTVSS”, the “polyreactivity (PSR sort gate)” value is “low polyreactivity”. With “QVQLVESGGGLVQAGGSLRLSCAASGFNFTGYTMGWYRQAPGTERELVAAISSSGGSTYYADSVKGRFTISRDNAKNTVYLQMNSLKPEDTAVDYCNAPRYRPGYWYDYWGQGTQVNVSS” the entry was “high polyreactivity”; with “QVQLEESRGGLVQAGGSLRLSFAAYGFTYFGYAMGWYRQAPGKERELVAAISTIDGDTYYADSVKGRFTISRDNAKNTFYLLMNSLKPEDNAFYYCAADDYIDGDDYWGQGTQVSVSS”, “low polyreactivity”.

With “QVQLVESGGGLVQAGGSLRLSCAASGRTFRNNAMGWYRQAPGKEREFVAVISNTGGSTYYADSVKGRFTISRDNAKNTVYLQMYSLKPEDTAVYYCAVRPRYSQYYYWGQGTQVTVSS”, the “polyreactivity (PSR sort gate)” value was “high polyreactivity”. With “QVQLVESGGGLVQAGGSLRLSCAASGLTFYYYAMGWSRQAPGKERELVAAISRSGGSTYYADSVKGRFTISRDNAKNTVYLQINSLKPEDTAVYYCAAREPYEGQRYYYEYYYWGQGTQVTVSS” the entry was “high polyreactivity”; with “QVQLVESGGGLVQAGGSLRLSSAASGITFDVNVMGWYRQAPRKERELVAAIRRGDSTDYADSVKGRFSISRDNEKNTVYLQMKSLKPEDTAVYYCAADDSGYELRAYTWPYFGYDYWGQGTQVTVSS”, “low polyreactivity”.

“QVQLVESGGGLVQAGGSLRLSCAASGSIFESYVMGWYRQAPGKERELVAAISSGGSTYYADSVKGRFTISRDNAKNTVYLQMNSLKPEDTAVYYCAANYDGGYLDYEAGYRLEYDYWGQGTQVTVSS”: the “polyreactivity (PSR sort gate)” value was “low polyreactivity”. With “QVQLVESGGGLVQAGGSLRLSCAASGITFRRYTMGWYRQAPGKEWELVATISLSDGNTYYADSVKGRFTISRDNAKTTVYLQMNSLKPEDTAGYYCNARHTWHQTYDYWGQGTQVTVSS” the entry was “low polyreactivity”. With “QVQLVESGGGLVQAGGSLRLSCAASGLIFPSYAMGWYRQAPGKERELVAAITFSGSDTNYADSVKGRFTISRDNAKNTVYLQMNSLKPEDTAVYYCAAAYFDFWGWLHDYWGQGTQVTVSS” the entry was “low polyreactivity”. For the sequence “QVQLVESGGGLVQAGGSLRLSCAASGIIFRYYAMGWYRQAPGKERELVARITSRGGTYYADSVKGRFTISRDNAKNTVYLQMNSLKPEDTAVYDCAASYLLTHGYAYNYWGQGTQVTVSS”, the “polyreactivity (PSR sort gate)” value was “high polyreactivity”. As to “QDQLEESGGGLVQAGGSLRLSCAASGRMFNSYAMGWYRQAPGKERELVAAISFSGGSTYYADSVKGRFTISRDNAKNTVYLQMNSLKPEDTAVYYCNAVTAVDTAHDYWGQGTQVTVSS”, the “polyreactivity (PSR sort gate)” value was “high polyreactivity”. “QVQLGESGGGLVQAGGSLRLSCAASGNIFRYYAMGWYRQAPGKERELVAAITWSGGSTYYADSVKGRFTISRDNAKNTVYLQMNSLKQEDTAVYYCNTYRVPYRTVQDDYWGQGTQVTLSS”: the “polyreactivity (PSR sort gate)” value was “high polyreactivity”. As for “QVQLEESGGGLVQAGGSLRLSCAASGRIFVTNAMGWSRQAPGKERELVADITSGGSTNYADSVKGRFTISRDNAKNTVYLQMNSLKPEDTAVYYCAARFTPYITSDDGHYDYWGQGTQVTVSS”, the “polyreactivity (PSR sort gate)” value is “low polyreactivity”.

On to “QVQLVESGGGLVQAGGSLRLSCAASGRTISFNTMAWYRQAPGKERDLVAGIERGGSTNYADSVKVRFTISRDNAKNTVYFQMNSLKPEDTAVYYCAARNLRYRYRNYDYWGQGTQVTVSS”, for which the “polyreactivity (PSR sort gate)” value is recorded as “high polyreactivity”. Consider “QVQLVESGGVLVQAGGSLRLSCAASGSTFSRYAMGWYRQAPGKETELVAAINWSGGRTYYADSVKGRFTISRDNAKNTVYLQMNSLIAADTAVYFCAADGRRYSGEYYYWGQGTQVTVSS”, for which the “polyreactivity (PSR sort gate)” value is given as “high polyreactivity”. For “QVQIVESGGGLVQAGGSLRLSCAASGSTFYRNAMGWYRQAPGKERELVAAIRWTGGNTYYADSVKGRFTISRDNAKNTVYLQMNSLKPEDTAVYYCAARSPLYGHGYWGQGTQVTVSS”, the “polyreactivity (PSR sort gate)” value was “high polyreactivity”.

As for “QVQLVESGGRLVQAGGSLRLSCAASGRTFSVYAMGWYRQAPGKERELVAGITSGGSTNYADSVKGRFTISRDNAKNTVYLQMNSRKPEDTAVYYCAAEIVYAAFGFDSIGDYWGQGTQVTVSS”, the “polyreactivity (PSR sort gate)” value is on record as “low polyreactivity”. With “QVQLVESGGGLVQAGGSLRISCAASGSIFRINAMGWYRQAHGKEMELVAAITASGDRTYYADSVKGRFTISRDNAKNTVYLQMNSLKPEDTAVFYCAVDSYYPASSLVAFPYAPRYDYWGQGTQVTVSS” the entry was “low polyreactivity”. As to “QVQLQESGVGLVQAGGSLRLSCAASGSISAVGAMGCYRQAPGQEREFAASVNWGTNTNYADSVKGRFTISRDNAKNTLYLQMNSLKPEDTAVYYCAVLPDWETRHDYWGHGTQVTVSS”, the “polyreactivity (PSR sort gate)” value is given as “low polyreactivity”.

On to “QDQLVESGGGLVQAGGSLRLSCAASGLTIYHYAMGWYRQAPGKERELVADISSGGSTSYADSVKGRFTISRDNAKNTVYLQMNSLKPEDTAVYYCAADYTWERYHRQIFRLDYWGQGTQVTVSS”, for which the “polyreactivity (PSR sort gate)” value is given as “low polyreactivity”.

Values taken from the nanobody polyreactivity screen of Harvey et al. (2022).
